Reference: patent publication US20240218070A1 (MERUS N V, published 2024)

T1: human FAP (huFAP) expressed on cells (human, UniProt Q12884 1-760)
T1 construct: also called WI-38 cells
T1 sequence: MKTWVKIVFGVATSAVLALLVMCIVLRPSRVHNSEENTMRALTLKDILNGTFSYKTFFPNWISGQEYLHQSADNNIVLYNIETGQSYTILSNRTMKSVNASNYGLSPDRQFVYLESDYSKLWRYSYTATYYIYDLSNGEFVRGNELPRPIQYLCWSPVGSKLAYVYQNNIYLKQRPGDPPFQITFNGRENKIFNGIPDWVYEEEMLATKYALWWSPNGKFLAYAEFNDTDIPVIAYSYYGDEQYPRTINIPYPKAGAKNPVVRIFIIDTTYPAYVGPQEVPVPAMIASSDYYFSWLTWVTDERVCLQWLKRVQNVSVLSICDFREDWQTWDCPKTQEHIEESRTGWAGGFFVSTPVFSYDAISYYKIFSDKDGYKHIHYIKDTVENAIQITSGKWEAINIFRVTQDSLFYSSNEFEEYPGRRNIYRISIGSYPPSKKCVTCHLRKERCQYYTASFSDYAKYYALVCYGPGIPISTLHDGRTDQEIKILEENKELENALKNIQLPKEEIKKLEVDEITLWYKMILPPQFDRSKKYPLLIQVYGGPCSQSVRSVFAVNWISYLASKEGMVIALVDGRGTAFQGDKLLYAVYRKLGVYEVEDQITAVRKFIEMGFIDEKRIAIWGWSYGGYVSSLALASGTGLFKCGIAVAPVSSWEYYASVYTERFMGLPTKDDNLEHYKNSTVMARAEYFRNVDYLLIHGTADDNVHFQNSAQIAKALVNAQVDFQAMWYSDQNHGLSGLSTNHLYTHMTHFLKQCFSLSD

T2: mouse FAP (moFAP) expressed on 293FF cells (mouse, UniProt P97321 1-761)
T2 sequence: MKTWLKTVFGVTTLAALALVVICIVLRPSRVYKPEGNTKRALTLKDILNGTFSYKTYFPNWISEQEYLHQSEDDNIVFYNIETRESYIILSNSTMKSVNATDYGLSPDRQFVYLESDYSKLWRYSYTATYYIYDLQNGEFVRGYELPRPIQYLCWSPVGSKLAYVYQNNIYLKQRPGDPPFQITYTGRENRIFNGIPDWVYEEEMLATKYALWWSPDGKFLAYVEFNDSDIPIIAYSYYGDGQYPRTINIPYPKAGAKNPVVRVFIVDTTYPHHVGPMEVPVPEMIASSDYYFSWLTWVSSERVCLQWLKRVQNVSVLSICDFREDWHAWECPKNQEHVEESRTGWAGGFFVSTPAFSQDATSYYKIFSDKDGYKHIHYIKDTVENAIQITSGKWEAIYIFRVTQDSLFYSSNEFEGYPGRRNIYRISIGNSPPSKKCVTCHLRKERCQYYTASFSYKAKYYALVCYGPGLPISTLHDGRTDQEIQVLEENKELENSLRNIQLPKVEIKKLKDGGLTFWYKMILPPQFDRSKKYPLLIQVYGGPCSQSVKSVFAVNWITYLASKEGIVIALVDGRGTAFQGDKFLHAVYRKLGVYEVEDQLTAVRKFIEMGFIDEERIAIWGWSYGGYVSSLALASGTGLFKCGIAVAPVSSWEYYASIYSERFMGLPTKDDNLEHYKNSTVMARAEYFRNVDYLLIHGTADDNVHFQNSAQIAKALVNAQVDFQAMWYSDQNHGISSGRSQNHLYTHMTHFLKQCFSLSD

B1: anti-human FAP bivalent monospecific IgG comprising heavy chain variable region SEQ ID NO: 11 (antibody, V domains shown)
VH: EVQLVESGGGLVQPGGSLRLSCAASGFTFSSYAMIWVRQAPGKGLEWVSAISGSGGYTFNADSVKGRFTMSRDNSKNTLYLQMNSLRAEDTAVYYCAKRDGGYEGGAFDIWGQGTLVTVSS
VL: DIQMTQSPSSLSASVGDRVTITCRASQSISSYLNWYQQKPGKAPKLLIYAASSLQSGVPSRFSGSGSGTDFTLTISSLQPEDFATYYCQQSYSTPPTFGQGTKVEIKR
notes: IgG1 format, common light chain VK1-39/JK1
B2: anti-human FAP bivalent monospecific IgG comprising heavy chain variable region SEQ ID NO: 69 (antibody, V domains shown)
VH: EVQLVETGGGLIQPGGSLRLSCAASGFTVSSNYMSWVRQAPGKGLEWVSVIYSGGSTYYADSVKGRFTISRDNSKNTLYLQMNSLRAEDTAVYYCARGPTDAYPYLDYLWGQGTLVTVSS
VL: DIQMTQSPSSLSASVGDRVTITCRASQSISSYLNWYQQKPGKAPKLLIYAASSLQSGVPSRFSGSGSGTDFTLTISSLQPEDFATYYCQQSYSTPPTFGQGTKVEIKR
notes: IgG1 format, common light chain VK1-39/JK1; also called human/mouse cross-reactive FAP IgG

What was measured:
[1] = molecular target: T1, human FAP (huFAP) expressed on cells; assay: FACS, 293FF cells stably expressing huFAP, IgG at 2.5 ug/ml
Procedure: (§1) The binding of all test and control antibodies to the cells was tested at a single concentration of 2.5 ug/ml. Goat-anti-human IgG F(ab)2-PE (Invitrogen, H10104) was used as secondary antibody (1:100 in FACS buffer). Ab0625 was used at 10 ug/ml and its binding was detected using Ab0250 (Becton Dickinson, 550767) (1:100 in FACS buffer). The FACS buffer containing PBS (Gibco, cat. #10010-015), 0.5% BSA (Thermo Scientific, cat. #37525), and 2 mM EDTA (Invitrogen, cat. #15575-020) was kept ice cold throughout the assay.
(§2) The target cells were harvested, counted, and centrifuged for 5 min at 300 g at 4 °C. Cells were then resuspended in FACS buffer at a concentration of 1×10⁶ cells/ml and transferred (200,000 cells/well) to a U-bottom 96-well FACS plate (BD, cat. #353910). Cells were then centrifuged for 3 min at 300 g at 4° C. and supernatant was discarded. 50 μl of primary antibody solutions were added to the cells, mixed, and incubated for 30 min at 2-8° C. in the dark. Cells were washed by adding 150 μl FACS buffer and centrifuged for 3 min at 300 g at 4° C. Supernatant was discarded, and cells were washed again by adding 200 μl FACS buffer to the plate. Cells were then centrifuged for 3 min at 300 g at 4° C. and afterwards the supernatant was discarded. 50 μl of secondary antibody solutions were added to the cells, mixed, and incubated for 30 min at 2-8° C. in the dark. […]

[2] = molecular target: T2, mouse FAP (moFAP) expressed on 293FF …; assay: FACS, 293FF cells transfected with moFAP, IgG at 2.5 ug/ml
Procedure: as §1, §2

Row | Binder | binding result [1] | binding result [2]
1 | B1 | binds | –
2 | B2 | – | binds
